What was measured:
[1] = target: T1, Recombinant Human β-NGF (human, UniProt P01138 122-241); experiment: direct bind ELISA
Method: (§1) Enzyme Linked Immunosorbent Assays to screen for antibodies that bind a desired target antigen were performed as follows. High bind ELISA plates (Corning Costar # 3369, Acton, Mass.) were coated with 100 μL/well of 10 μg/ml of desired target antigen (R&D Systems, Minneapolis, Minn.) or desired target antigen extra-cellular domain/FC fusion protein (R&D Systems, Minneapolis, Minn.) or monoclonal mouse anti-polyhistidine antibody (R&D Systems # MAB050, Minneapolis, Minn.) in phosphate buffered saline (10×PBS, Abbott Bioresearch Center, Media Prep# MPS-073, Worcester, Mass.) overnight at 4° C. Plates were washed four times with PBS containing 0.02% Tween 20. Plates were blocked by the addition of 300 μL/well blocking solution (non-fat dry milk powder, various retail suppliers, diluted to 2% in PBS) for ½ hour at room temperature. Plates were washed four times after blocking with PBS containing 0.02% Tween 20.
(§2) Plates were washed 4 times with PBS containing 0.02% Tween 20.
(§3) One hundred microliters of enhanced TMB solution (Neogen Corp. #308177, K Blue, Lexington, Ky.) was added to each well and incubated for 10 minutes at room temperature. The reaction was stopped by the addition of 50 μL 1N sulphuric acid. Plates were read spectrophotometrically at a wavelength of 450 nm.

[2] = target: T1, Recombinant Human β-NGF; experiment: Biacore SPR
Method: (§4) The BIACORE assay (Biacore, Inc, Piscataway, N.J.) determines the affinity of antibodies or DVD-Ig with kinetic measurements of on-rate and off-rate constants. Binding of antibodies or DVD-Ig to a target antigen (for example, a purified recombinant target antigen) is determined by surface plasmon resonance-based measurements with a BiacoreR 1000 or 3000 instrument (Biacore® AB, Uppsala, Sweden) using running HBS-EP (10 mM HEPES [pH 7.4], 150 mM NaCl, 3 mM EDTA, and 0.005% surfactant P20) at 25° C. All chemicals are obtained from Biacore® AB (Uppsala, Sweden) or otherwise from a different source as described in the text. For example, approximately 5000 RU of goat anti-mouse IgG, (Fcγ), fragment specific polyclonal antibody (Pierce Biotechnology Inc, Rockford, Ill.) diluted in 10 mM sodium acetate (pH 4.5) is directly immobilized across a CM5 research grade biosensor chip using a standard amine coupling kit according to manufacturer's instructions and procedures at 25 μg/ml. Unreacted moieties on the biosensor surface are blocked with ethanolamine. Modified carboxymethyl dextran surface in flowcell 2 and 4 is used as a reaction surface. Unmodified carboxymethyl dextran without goat anti-mouse IgG in flow cell 1 and 3 is used as the reference surface. For kinetic analysis, rate equations derived from the 1:1 Langmuir binding model are fitted simultaneously to association and dissociation phases of all eight injections (using global fit analysis) with the use of Biaevaluation 4.0.1 software. Purified antibodies or DVD-Ig are diluted in HEPES-buffered saline for capture across goat anti-mouse IgG specific reaction surfaces. Antibodies or DVD-Ig to be captured as a ligand (25 μg/ml) are injected over reaction matrices at a flow rate of 5 μl/min. The association and dissociation rate constants, kₒₙ (M⁻¹s⁻¹) and koff (s⁻¹) are determined under a continuous flow rate of 25 μl/min. Rate constants are derived by making kinetic binding measurements at different antigen concentrations ranging from […]. The equilibrium dissociation constant (M) of the reaction between antibodies or DVD-Igs and the target antigen is then calculated from the kinetic rate constants by the following formula: KD=koff/kₒₙ. Binding is recorded as a function of time and kinetic rate constants are calculated.

[3] = target: T2, CD20 on cells (UniProt P11836 1-297, limits assumed); experiment: flow cytometry on cells, 2 µg/mL
T2 construct: whole, on cells
T2 sequence (looked up): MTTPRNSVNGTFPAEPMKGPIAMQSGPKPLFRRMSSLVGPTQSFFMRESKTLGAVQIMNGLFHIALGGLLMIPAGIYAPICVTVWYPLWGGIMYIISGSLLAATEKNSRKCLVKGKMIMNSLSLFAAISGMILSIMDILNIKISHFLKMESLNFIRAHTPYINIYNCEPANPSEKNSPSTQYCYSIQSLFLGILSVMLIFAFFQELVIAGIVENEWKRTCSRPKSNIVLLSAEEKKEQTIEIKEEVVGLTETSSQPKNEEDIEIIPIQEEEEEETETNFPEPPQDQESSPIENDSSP
Method: Stable cell lines overexpressing a cell-surface antigen of interest or human tumor cell lines were harvested from tissue culture flasks and resuspended in phosphate buffered saline (PBS) containing 5% fetal bovine serum (PBS/FBS). Prior to staining, human tumor cells were incubated on ice with (100 μl) human IgG at 5 μg/ml in PBS/FCS. 1−5×10⁵ cells were incubated with antibody or DVD-Ig (2 μg/mL) in PBS/FBS for 30-60 minutes on ice. […] After 30 minutes incubation on ice, cells were washed twice and resuspended in PBS/FBS. Fluorescence was measured using a Becton Dickinson FACSCalibur (Becton Dickinson, San Jose, Calif.).
The geometric mean is the n root of the multiplication product of n fluorescent signals (a1×a2×a3 . . . an). With log-transformed data the geometric mean is used to normalize the weighting of the data distribution.

[4] = target: T3, Recombinant Human Dkk-1 (human, UniProt O94907 32-266); experiment: direct bind ELISA
T3 construct: also called DKK-1/His
T3 sequence (looked up): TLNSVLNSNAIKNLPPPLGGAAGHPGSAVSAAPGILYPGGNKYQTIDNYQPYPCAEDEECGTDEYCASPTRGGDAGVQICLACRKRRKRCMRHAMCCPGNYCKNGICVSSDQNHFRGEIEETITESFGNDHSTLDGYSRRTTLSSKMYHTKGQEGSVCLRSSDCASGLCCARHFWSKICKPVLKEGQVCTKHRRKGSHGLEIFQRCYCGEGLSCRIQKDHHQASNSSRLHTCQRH
Method: as §1, §2, §3

[5] = target: T3, Recombinant Human Dkk-1; experiment: Biacore SPR
Method: as §4

[6] = target: T4, Recombinant Human VEGF (human, UniProt P15692-4 27-191); experiment: direct bind ELISA
T4 construct: also called VEGF165
Method: as §1, §2, §3

[7] = target: T5, Recombinant Human IL-1β (human, UniProt P01584 117-269); experiment: direct bind ELISA
T5 construct: also called IL-1b; IL-1B
Method: as §1, §2, §3

[8] = target: T4, Recombinant Human VEGF; experiment: Biacore SPR
Method: as §4

[9] = target: T5, Recombinant Human IL-1β; experiment: Biacore SPR
Method: as §4

[10] = target: T5, Recombinant Human IL-1β; experiment: cell-based or functional assay
[11] = target: T6, Recombinant Human SOST (human, UniProt Q9BQB4 24-213); experiment: direct bind ELISA
T6 construct: also called SOST/His; Sclerostin
T6 sequence (looked up): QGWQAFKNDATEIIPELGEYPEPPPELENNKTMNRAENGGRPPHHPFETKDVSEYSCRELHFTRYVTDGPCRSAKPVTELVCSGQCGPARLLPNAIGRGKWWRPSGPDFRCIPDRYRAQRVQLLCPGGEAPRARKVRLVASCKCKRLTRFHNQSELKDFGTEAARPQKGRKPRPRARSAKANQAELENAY
Method: as §1, §2, §3

[12] = target: T6, Recombinant Human SOST; experiment: Biacore SPR
Method: as §4

[13] = target: T7, Recombinant Human TRANCE/RANKL/TNFSF 11 (human, UniProt O14788 69-317); experiment: direct bind ELISA
T7 construct: extracellular domain
T7 sequence (looked up): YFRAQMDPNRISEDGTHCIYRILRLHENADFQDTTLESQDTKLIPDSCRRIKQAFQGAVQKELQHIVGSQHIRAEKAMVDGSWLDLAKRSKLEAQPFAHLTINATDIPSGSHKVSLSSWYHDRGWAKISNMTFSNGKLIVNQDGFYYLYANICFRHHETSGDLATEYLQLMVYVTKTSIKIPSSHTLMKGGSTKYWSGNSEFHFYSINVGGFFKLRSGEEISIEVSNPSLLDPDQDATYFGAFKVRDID
Method: as §1, §2, §3

T1 sequence (P01138 122-241 limits assumed): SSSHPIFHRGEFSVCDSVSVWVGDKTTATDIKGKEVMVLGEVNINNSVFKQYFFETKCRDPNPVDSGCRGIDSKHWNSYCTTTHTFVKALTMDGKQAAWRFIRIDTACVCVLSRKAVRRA

B1: AB020 (antibody, human IgG1, kappa, V domains shown)
VH: QVQLQESGPGLVKPSETLSLTCTVSGFSLIGYDLNWIRQPPGKGLEWIGIIWGDGTTDYNSAVKSRVTISKDTSKNQFSLKLSSVTAADTAVYYCARGGYWYATSYYFDYWGQGTLVTVSS
VL: DIQMTQSPSSLSASVGDRVTITCRASQSISNNLNWYQQKPGKAPKLLIYYTSRFHSGVPSRFSGSGSGTDFTFTISSLQPEDIATYYCQQEHTLPYTFGQGTKLEIKR
notes: vectors V1 and V2; also called anti-NGF parent antibody
[1]
  EC50: 9 nM
[2]
  Kd: < 0.000926 nM
  koff: < 1e-06 s⁻¹
  kon: 1.08e+06 M⁻¹ s⁻¹

B2: AB001 (antibody, human IgG1, kappa, V domains shown)
VH: QVQLQQPGAELVKPGASVKMSCKASGYTFTSYNMHWVKQTPGRGLEWIGAIYPGNGDTSYNQKFKGKATLTADKSSSTAYMQLSSLTSEDSAVYYCARSTYYGGDWYFNVWGAGTTVTVSA
VL: QIVLSQSPAILSPSPGEKVTMTCRASSSVSYIHWFQQKPGSSPKPWIYATSNLASGVPVRFSGSGSGTSYSLTISRVEAEDAATYYCQQWTSNPPTFGGGTKLEIKR
notes: vectors V1 (wild type hIgG1 constant) and V2 (kappa); also called anti-CD20 parent antibody
[3]
  FACS Geometric Mean: 1350

B3: AB023 (antibody, human IgG1, kappa, V domains shown)
VH: EVQLVESGGGLVQPANSLKLSCAASGFTFSDYAMAWVRQSPKKGLEWVATIIYDGSSTYYRDSVKGRFTISRDNAKSTLYLQMDSLRSEDTATYYCATGLGIATDYFDYWGQGVLVTVSS
VL: DIRMTQSPASLSASLGETVNIECLASEDIYSDLAWYQQKPGKSPQLLIYNANSLQNGVPSRFSGSGSGTQYSLKINSLQSEDVATYFCQQYNNYPPTFGGGTKLELKR
notes: vectors V1 and V2; also called anti-DKK parent antibody
[4]
  EC50: 6.83 nM
[5]
  Kd: < 0.0087 nM
  koff: 8.7e-05 s⁻¹
  kon: > 1e+07 M⁻¹ s⁻¹

B4: DVD124 (bispecific antibody, human IgG1, kappa)
heavy: not shown
light: DIQMTQSPSSLSASVGDRVTITCSASQDISNYLNWYQQKPGKAPKVLIYFTSSLHSGVPSRFSGSGSGTDFTLTISSLQPEDFATYYCQQYSTVPWTFGQGTKVEIKRTVAAPEIVLTQSPDFQSVTPKEKVTITCRASQSIGSSLHWYQQKPDQSPKLLIKYASQSFSGVPSRFSGSGSGTDFTLTINSLEAEDAAAYYCHQSSSLPFTFGPGTKVDIKRTVAAPSVFIFPPSDEQLKSGTASVVCLLNNFYPREAKVQWKVDNALQSGNSQESVTEQDSKDSTYSLSSTLTLSKADYEKHKVYACEVTHQGLSSPVTKSFNRGEC
notes: outer AB014, inner AB032; vectors V1, V2
[6]
  EC50: 3.49 nM
[7]
  EC50: 459 nM
[8]
  Kd: 0.0467 nM
  koff: 4.03e-05 s⁻¹
  kon: 863000 M⁻¹ s⁻¹
[9]
  Kd: 1.41 nM
  koff: 9.32e-05 s⁻¹
  kon: 66000 M⁻¹ s⁻¹
[10]
  IL-1β Neutralization Assay EC50 (MRC5 cells, hIL-8): 3.63 nM

B5: AB022 (antibody, human IgG1, kappa, V domains shown)
VH: EVQLQQSGPELVTPGASVKISCKASGYTFTDHYMSWVKQSHGKSLEWIGDINPYSGETTYNQKFKGTATLTVDKSSSIAYMEIRGLTSEDSAVYYCARDDYDASPFAYWGQGTLVTVSA
VL: DVQMIQSPSSLSASLGDIVTMTCQASQGTSINLNWFQQKPGKAPKLLIYGSSNLEDGVPSRFSGSRYGTDFTLTISSLEDEDLATYFCLQHSYLPYTFGGGTKLEIKR
notes: vectors V1 and V2
[11]
  EC50: 0.66 nM
[12]
  Kd: 0.0379 nM
  koff: 2.44e-05 s⁻¹
  kon: 642000 M⁻¹ s⁻¹

B6: DVD165 (bispecific antibody, human IgG1, kappa)
heavy: not shown
light: QIVLSQSPAILSPSPGEKVTMTCRASSSVSYIHWFQQKPGSSPKPWIYATSNLASGVPVRFSGSGSGTSYSLTISRVEAEDAATYYCQQWTSNPPTFGGGTKLEIKRTVAAPEIVLTQSPGTLSLSPGERATLSCRASQSVRGRYLAWYQQKPGQAPRLLIYGASSRATGIPDRFSGSGSGTDFTLTISRLEPEDFAVFYCQQYGSSPRTFGQGTKVEIKRTVAAPSVFIFPPSDEQLKSGTASVVCLLNNFYPREAKVQWKVDNALQSGNSQESVTEQDSKDSTYSLSSTLTLSKADYEKHKVYACEVTHQGLSSPVTKSFNRGEC
notes: vectors V1, V2; also called CD-20 and RANKL DVD-Ig
[13]
  EC50: 0.32 nM
[3]
  FACS Geometric Mean: 1890

Source: patent publication US20090311253A1 (AbbVie / Abbott, published 2009)
